Values of other authors in publication PMC4496705.
pKd: −log10 of the molar value.

Experiments:
[1] = biological target: hPrp4 peptide (Homo sapiens) (UniProt O43172); assay: ITC
SKIP (Homo sapiens) = SKIP (Homo sapiens) (UniProt Q13573); assay: SPR
Chain of UniProt Q13573 (Q13573 2-536): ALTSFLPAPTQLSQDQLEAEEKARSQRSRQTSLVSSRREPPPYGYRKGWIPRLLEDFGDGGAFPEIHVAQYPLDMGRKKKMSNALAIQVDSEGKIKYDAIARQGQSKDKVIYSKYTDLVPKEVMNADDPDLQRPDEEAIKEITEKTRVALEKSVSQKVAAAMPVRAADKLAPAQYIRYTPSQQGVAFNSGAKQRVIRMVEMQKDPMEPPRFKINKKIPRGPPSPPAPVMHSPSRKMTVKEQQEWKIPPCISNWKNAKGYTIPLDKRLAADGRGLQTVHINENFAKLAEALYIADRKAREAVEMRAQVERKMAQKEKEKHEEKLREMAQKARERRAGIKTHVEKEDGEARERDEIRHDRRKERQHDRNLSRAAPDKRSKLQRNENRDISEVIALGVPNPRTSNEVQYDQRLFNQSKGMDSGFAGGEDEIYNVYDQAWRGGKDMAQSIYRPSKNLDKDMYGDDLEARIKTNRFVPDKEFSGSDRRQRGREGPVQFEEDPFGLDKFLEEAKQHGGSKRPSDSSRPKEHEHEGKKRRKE

Chain of UniProt O43172 (O43172 whole entry): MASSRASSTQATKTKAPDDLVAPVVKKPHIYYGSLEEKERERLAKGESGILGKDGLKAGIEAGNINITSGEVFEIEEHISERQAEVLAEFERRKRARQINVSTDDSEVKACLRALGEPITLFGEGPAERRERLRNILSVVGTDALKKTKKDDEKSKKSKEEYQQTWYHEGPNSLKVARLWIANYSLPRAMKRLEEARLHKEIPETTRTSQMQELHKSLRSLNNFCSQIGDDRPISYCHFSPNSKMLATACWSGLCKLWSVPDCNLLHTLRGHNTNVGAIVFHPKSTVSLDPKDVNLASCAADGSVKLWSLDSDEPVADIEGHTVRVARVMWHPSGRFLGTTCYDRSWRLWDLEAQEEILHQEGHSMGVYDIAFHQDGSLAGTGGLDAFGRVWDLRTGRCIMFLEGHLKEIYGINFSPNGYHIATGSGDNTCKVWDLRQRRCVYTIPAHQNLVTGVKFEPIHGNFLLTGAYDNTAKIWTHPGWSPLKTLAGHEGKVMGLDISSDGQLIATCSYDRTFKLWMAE

Row | Substance | pKd [1] | pKd (SKIP (Homo sapiens))
1 | PPIH (from UniProt O43447) | 5.71 | –
2 | PPIL1 (from UniProt Q9Y3C6) | – | 6.90
